{"source": "paper PMC6981688", "key": {"[1]": {"test": "WB of histone marks in 293T", "conditions": "glycan lost; control: NSL3-3wt overexpression"}, "[2]": {"test": "Flag-OGT1 IP, WB for NSL3, MOF, MCRS1, PHF20, NSL1, NSL2", "conditions": "glycan lost; control: NSL3-3wt overexpression"}, "[3]": {"test": "Flag IP, anti-HA-ubiquitin WB, increasing OGT1, NSL3-3 truncation", "conditions": "glycan lost; control: NSL3-3wt"}, "A549 colony formation": {"test": "A549 colony formation", "conditions": "glycan lost; control: NSL3-3wt overexpression"}, "[4]": {"test": "NSL3 ubiquitination: Flag IP, anti-HA-ubiquitin WB, MG132", "conditions": "glycan gained; control: NSL3 alone / untreated"}, "[5]": {"test": "Flag IP, WB, increasing OGA", "conditions": "glycan lost; control: full-length NSL3wt"}, "[6]": {"test": "Flag IP, anti-HA-ubiquitin WB, increasing OGT1, UBE2S, MG132", "conditions": "glycan lost; control: full-length NSL3wt"}}}
{"substance": "NSL3 (nonspecific lethal protein 3): Flag-NSL3-3 T755A", "values": [{"measurement": "other: reduction of global H4 acetylation/H3K4me2 by NSL3-3 overexpression", "setting": "[1]", "value": "abolishes"}]}
{"substance": "NSL3 (nonspecific lethal protein 3): NSL3-3 T755A", "values": [{"measurement": "other: loss of NSL complex subunits from Flag-OGT1 IP caused by NSL3-3", "setting": "[2]", "value": "abolishes"}, {"measurement": "degradation_or_half_life", "setting": "[3]", "value": "changes"}]}
{"substance": "NSL3 (nonspecific lethal protein 3): NSL3-3mt (T755A)", "values": [{"measurement": "other: colony suppression by NSL3-3 overexpression", "setting": "A549 colony formation", "value": "abolishes"}]}
{"substance": "NSL3 (nonspecific lethal protein 3): OGT1 co-transfection", "values": [{"measurement": "degradation_or_half_life", "setting": "[4]", "value": "increases"}]}
{"substance": "NSL3 (nonspecific lethal protein 3): NSL3 T755A", "values": [{"measurement": "other: OGA-induced increase of NSL3 ubiquitination and UBE2S binding", "setting": "[5]", "value": "decreases"}, {"measurement": "other: OGT1-dependent decrease of NSL3 ubiquitination", "setting": "[6]", "value": "abolishes"}]}
{"substance": "NSL3 (nonspecific lethal protein 3): thiamet-G (TMG)", "values": [{"measurement": "degradation_or_half_life", "setting": "[4]", "value": "decreases"}]}
